Key:
[1] = target: S protein of authentic (isogenic) SARS-CoV-2 variant B.1.351, on virus (SARS-CoV-2) (UniProt P0DTC2); assay: cell-based or functional assay
[2] = target: S protein of authentic SARS-CoV-2 variant D614G, on virus (SARS-CoV-2) (UniProt P0DTC2); assay: cell-based or functional assay

IgG REGN10933 (antibody) gave an IC50, focus reduction neutralization test [1] greater than 1000 ng/mL and an IC50, focus reduction neutralization test [2] of 10 ng/mL.
